Laboratory results reported in US20210324066A1.

Key:
[1] = molecular target: LIGHT standard recombinant antigen (UniProt O43557); experiment: Simoa sandwich immunoassay, Enzo ALX-804-841-C100 capture with ProSci RF16062 detection, free LIGHT in diluent; uninhibited signal in the inhibition formula
[2] = molecular target: LIGHT standard recombinant antigen (UniProt O43557); experiment: Simoa sandwich immunoassay, Enzo ALX-804-841-C100 capture with ProSci RF16062 detection, free LIGHT in diluent; signal inhibited by DcR3 as competitor
[3] = molecular target: native free LIGHT (TNFSF14) in serum and plasma samples (UniProt O43557); experiment: antibody competition: serum and plasma samples incubated with 50 µg/mL free capture antibody for 35 minutes before the Simoa free LIGHT assay; treated against untreated sample concentration

MFI [1]: 9940 MFI
MFI [2]: 361 MFI
% Recovery [3]: 0%
Substance: Enzo ALX-804-841-C100 (antibody)
